The results in this text go back to patent publication US20250297255A1 (ARSENAL BIOSCIENCES, published 2025).

Positions count from the first letter of the chain named.

B1: TMPRSS4 Ab11 scFv (VH-VL) (scFv)
scFv: QVQLVQSGAEVKKPGASVKVSCKASGGTFSNYAISWVRQAPGQGLEWVGRINPNSGGTNYAQKFQGRVTMTRDTSTSTVYMELSSLRSEDTAVYYCARGRYSSSSWGQGTLVTVSSGGGGSGGGGSGGGGSDIQMTQSPSSLSASVGDRVTITCRASQSINNYLNWYQQKPGKAPKLLIYAASSLQSGVPSRFSGSGSGTDFTLTISSLQPEDFATYYCQQSYSTKWTFGQGTKVEIK
notes: on monoclonal phage in the screen
B2: TMPRSS4 Ab13 scFv (VH-VL) (scFv)
scFv: QVQLVQSGAEVKKPGASVKVSCKASGYTFTNYYMHWVRQAPGQGLEWMGWISAYNGNTNYAQKLQGRVTMTRDTSTSTVYMELSSLRSEDTAVYYCATASGWGHSNSAGYWGQGTLVTVSSGGGGSGGGGSGGGGSEIVMTQSPATLSVSPGERATLSCRASQSVNGNYLAWYQQKPGQAPRLLIYGVSSRASGIPARFSGSGSGTEFTLTISSLQSEDFAVYYCQQYGSSPYTFGQGTKVEIK
notes: as for B1
B3: TMPRSS4 Ab1 scFv (VH-VL) (scFv)
scFv: QVQLVQSGAEVKKPGSSVKVSCKASGYTFTDYYMHWVRQAPGQGLEWMGGIIPIFGTANYAQKFQGRVTITADESTSTAYMELSSLRSEDTAVYYCAKEGANGYWGQGTLVTVSSGGGGSGGGGSGGGGSDIQMTQSPSSLSASVGDRVTITCQASQDISNYLNWYQQKPGKAPKLLIYKASSLESGVPSRFSGSGSGTDFTLTISSLQPEDFATYYCQQSSRIPPTFGQGTKVEIK
notes: as for B1
B4: TMPRSS4 Ab14 scFv (VH-VL) (scFv)
scFv: EVQLLESGGGLVQPGGSLRLSCAASGFTFSNHYMSWVRQAPGKGLEWVSAISGSGGSTYYADSVKGRFTISRDNSKNTLYLQMNSLRAGDTAVYYCARDRYRWGRGYFQHWGQGTLVTVSSGGGGSGGGGSGGGGSDIQMTQSPSSLSASVGDRVTITCRASQRISTYLNWYQQKPGKAPKLLIYSASTLQAGVPSRFSGSGSGTDFTLTISSLQPEDFATYYCQQAYSLPWTFGQGTKLEIK
notes: as for B1
B5: TMPRSS4 Ab12 scFv (VH-VL) (scFv)
scFv: QVQLVQSGAEVKKPGASVKVSCKASGYTFSNYYIHWVRQAPGQGLEWMGWINPNSGDTNYAQKFQGRVTMTRDTSTSTVYMELSSLRSEDTAVYYCARGMTWRTSAATYWGQGTLVTVSSGGGGSGGGGSGGGGSDIQMTQSPSSLSASVGDRVTITCRASQGISRWLAWYQQKPGKAPKLLIYGASNLQTGVPSRFSGSGSGTDFTLTISSLQPEDFATYYCQQSYSTPPTFGPGTKVDIK
notes: as for B1
B6: TMPRSS4 Ab15 scFv (VH-VL) (scFv)
scFv: QVQLVQSGAEVKKPGASVKVSCKASGYTFTRYYMHWVRQAPGQGLEWMGWINPNSGVTNFAQKFQGRVTMTRDTSTSTVYMELSSLRSEDTAVYYCARVRIGWLQSPPLYWGQGTLVTVSSGGGGSGGGGSGGGGSDIQMTQSPSSLSASVGDRVTITCRASQSINTWLAWYQQKPGKAPKLLIYAASSLQSGVPSRFSGSGSGTDFTLTISSLQPEDFATYYCQQAISFPLTFGGGTKVEIK
notes: as for B1
B7: TMPRSS4 Ab46 scFv (VH-VL) (scFv)
scFv: B6 scFv with T30S, Y33F, V57G, F60Y, N166S, A227S, I228Y, S229G, L232W, G236Q
notes: as for B1
B8: TMPRSS4 Ab10 scFv (VH-VL) (scFv)
scFv: QVQLVQSGAEVKKPGASVKVSCKASGYTFTSYYMHWVRQAPGQGLEWMGIINPSGAGTTYGHNFQGRVTMTRDTSTSTVYMELSSLRSEDTAVYYCARGPRDTAMVRFDYWGQGTLVTVSSGGGGSGGGGSGGGGSEIVMTQSPATLSVSPGERATLSCRASQSVSSYLAWYQQKPGQAPRLLIYGASTRATGIPARFSGSGSGTEFTLTISSLQSEDFAVYYCQQYGSSPGTFGQGTKLEIK
notes: as for B1

T1 sequence (Q9NRS4 whole entry): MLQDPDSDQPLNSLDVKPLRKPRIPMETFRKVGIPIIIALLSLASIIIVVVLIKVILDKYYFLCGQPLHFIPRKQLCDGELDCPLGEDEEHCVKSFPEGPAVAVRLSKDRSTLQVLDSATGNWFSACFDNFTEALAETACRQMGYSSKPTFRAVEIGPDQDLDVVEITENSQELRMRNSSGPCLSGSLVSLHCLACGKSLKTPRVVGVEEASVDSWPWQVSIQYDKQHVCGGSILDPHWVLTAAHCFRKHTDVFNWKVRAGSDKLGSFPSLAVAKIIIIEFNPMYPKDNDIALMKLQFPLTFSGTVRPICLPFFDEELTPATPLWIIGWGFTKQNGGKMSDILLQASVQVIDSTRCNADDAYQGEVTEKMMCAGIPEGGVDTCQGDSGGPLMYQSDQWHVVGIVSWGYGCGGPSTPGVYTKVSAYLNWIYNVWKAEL

This assay addresses T1, Human TMPRSS4 (Transmembrane protease, serine 4), wild type full length (human, UniProt Q9NRS4 1-437).
T1 construct: Type II membrane protein over-expressed on HEK293T cells (also endogenous on H1975 and LUDLU-1 cells); also called TMPRSS4 WT; HEK293T-TMPRSS4
Nature of the assay: flow cytometry, monoclonal phage on HEK293T-TMPRSS4 cells.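 Also: bound phage detected with a PE-labelled mouse anti-M13 monoclonal antibody, read by flow cytometry.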 In general terms: In flow cytometry, cells or beads pass a laser one at a time.
As for B1, the binding result is on record as “binds”.

Regarding B2, the binding result is on record as “binds”.

As for B3, the binding result is on record as “binds”. As for B4, the binding result is “binds”. As for B5, the binding result was “binds”.

In the case of B6, the binding result is “binds”. Consider B7, for which the binding result is recorded as “binds”. Turning to B8, the binding result is reported as “binds”.
